Measurements taken from article PMC6608616 (IUCrJ, 2019).

Target: Tryptophan synthase β subunit (TrpB) from Streptococcus pneumoniae (Streptococcus pneumoniae TIGR4, UniProt Q97P32 4-407, PLP covalently attached to Lys91)
Test: crystal structure
Conditions: both partners purified

B1: Tryptophan synthase α subunit (TrpA) from Streptococcus pneumoniae (enzyme)
chain: MPKTLTEKLNAIKAAGKGIFVPYIMAGDHEKGLDGLAETIHFLEDLGVSAIEVGIPFSDPVADGPVIEEAGLRSLAHGTSTQALVETLKTIETEIPLVIMTYFNPLFQYGVENFVKDLADTAVKGLIIPDLPHEHANFVEPFLANTDIALIPLVSLTTGIERQKELIEGAEGFIYAVAINGVTGKSGNYRADLDKHLAQLHQVADIPVLTGFGVSSQADLERFNAVSDGVIVGSKIVKALHQGEPIQDFIRQAVAYQK
  binding result: binds
